“And” between values parts separate entries of the source, which are not always exact repeats. Identical values can stand only once.
How the values were obtained:
[1] = target: T1, α-fructosyl-valyl-histidine
T1 chain: VH

[2] = target: T2, α-fructosyl-valyl-histidyl-leucine
T2 chain: VHL

[3] = target: T3, α-fructosyl-valyl-histidyl-leucyl-threonine
T3 chain: VHLT

[4] = target: T4, α-fructosyl-valyl-histidyl-leucyl-threonyl-proline
T4 chain: VHLTP

[5] = target: T5, α-fructosyl-valyl-histidyl-leucyl-threonyl-proryl-glutamic acid
T5 chain: VHLTPE

[6] = target: T6, α-fructosyl-valyl-histidyl-leucyl-threonyl-proryl-glutamyl-glutamyl-lysine
T6 chain: VHLTPEEK

[7] = target: T7, α-fructosyl-valyl-histidyl-leucyl-threonyl-proryl-glutamyl-glutamyl-lysyl-seryl-alanyl-valyl-threonyl-alanyl-leucyl-tryptophyl-glycine
T7 chain: VHLTPEEKSAVTALWG

B1: CFP-T7-H35 (protein)
chain: MTSNRADTRVIVVGGGGTIGSSTALHLVRSGYAPANITVLDTFEIPSAQSAGHDLNKIMGIDHRNKVDLQMSLEARQMWKEDELFQPFFHNTGRMDCEHTPKGIEKLKKLYQKLHDAGAGLEKTHAWLDNEDEILSKMPLLQRDQIQGWKAIWSQDGGWLAAAKAINAIGQFLKERGVKFGFGGAGSFKQPLFDDEGTTCIGVETADGTKYYADKVVLAAGAWSPTLVDLEDQCCSKAWVYAHIQLTPEEAAEYKGVPVVYNGEFGFFFEPDEFGVIKVCDEFPGFSRFKEHQPYGAPSPKRISVPRSHAKHPTDTYPDASEVSIKKAIATFLPRFQDKELFNRALCWCTDTADSALLMCEHPKWKNFILATGDSGHSFKILPNVGKYVVELIEGRLPEEMAYQWRWRPGGDALKSRRAAPPKDLADMPGWKHDPKL
Specific activity (U/mg), 1 mM αFVH, purified enzyme [1]: 1.9 U/mg | Specific activity (U/mg), 1 mM αF3P, purified enzyme [2]: 1.24 U/mg | Specific activity (U/mg), 1 mM αF4P, purified enzyme [3]: 0.352 U/mg | Specific activity (U/mg), 1 mM αF5P, purified enzyme [4]: 2.15 U/mg | Specific activity (U/mg), 1 mM αF6P, purified enzyme [5]: 4.27 U/mg | fold of specific activity on αF6P against FAOAo2 (Amadoriase 25/Comparative Example 2) [5]: 2 times (Amadoriase 26/Comparative Example 3) to 1,940 times (Amadoriase 25/Comparative Example 2) | αF6P oxidation activity ratio (crude enzyme; CFP-T7-H28 = 100) (relative (CFP-T7-H28 = 100)) [5]: 206 | αF6P/αFV [5]: 0.323 | αF6P/αFVH [5]: 2.25 | Specific activity (U/mg), 1 mM αF8P, purified enzyme [6]: 1.59 U/mg | Specific activity (U/mg), 1 mM αF16P, purified enzyme [7]: 0.247 U/mg

B2: CFP-T7-62D (protein)
chain: MTSNRADTRVIVVGGGGTIGSSTALHLVRSGYAPANITVLDTFEIPSAQSAGHDLNKIMGIDLRNKVDLQMSLEARQMWKEDELFQPFFHNTGRMDCEHTPEGIEDLKKQYQALHDAGAGLEKTHAWLDNEDEILSKMPLLQRDQIQGWKAIWSQDGGWLAAAKAINAIGQFLKERGVKFGFGGAGSFKQPLFDDEGTTCIGVETADGTKYYADKVVLAAGAWSPTLVDLEDQCCSKAWVYAHIQLTPEEAAEYKGVPVVYNGEFGFFFEPDEFGVIKVCDEFPGFSRFKEHQPYGAPSPKRISVPRSHAKHPTDTYPDASEVSIKKAIATFLPRFQDKELFNRALCWCTDTADAALLMCEHPKWKNFILATGDSGHSFKILPNVGKYVVELIEGRLPEEMAYQWRWRPGGDALKSRRAAPPKDLADMPGWKHDPKL
Specific activity (U/mg), 1 mM αFVH, purified enzyme [1]: 1.62 U/mg | Specific activity (U/mg), 1 mM αF6P, purified enzyme [5]: 0.018 U/mg | fold of specific activity on αF6P against PnFX (Amadoriase 26/Comparative Example 3) [5]: 2 times (Amadoriase 26/Comparative Example 3) to 1,940 times (Amadoriase 25/Comparative Example 2) | αF6P/αFV [5]: 0.00113 | αF6P/αFVH [5]: 0.00132

B3: CFP-T7 (protein)
chain: MTSNRADTRVIVVGGGGTIGSSTALHLVRSGYAPANITVLDTFEIPSAQSAGHDLNKIMGIRLRNKVDLQMSLEARQMWKEDELFQPFFHNTGRMDCEHTPEGIEDLKKQYQALHDAGAGLEKTHAWLDNEDEILSKMPLLQRDQIQGWKAIWSQDGGWLAAAKAINAIGQFLKERGVKFGFGGAGSFKQPLFDDEGTTCIGVETADGTKYYADKVVLAAGAWSPTLVDLEDQCCSKAWVYAHIQLTPEEAAEYKGVPVVYNGEFGFFFEPDEFGVIKVCDEFPGFSRFKEHQPYGAPSPKRISVPRSHAKHPTDTYPDASEVSIKKAIATFLPRFQDKELFNRALCWCTDTADAALLMCEHPKWKNFILATGDSGHSFKILPNVGKYVVELIEGRLPEEMAYQWRWRPGGDALKSRRAAPPKDLADMPGWKHDPKL
Specific activity (U/mg), 1 mM αFVH, purified enzyme [1]: 16.5 U/mg | Specific activity (U/mg), 1 mM αF3P, purified enzyme [2]: 0 U/mg | Specific activity (U/mg), 1 mM αF4P, purified enzyme [3]: 0 U/mg | Specific activity (U/mg), 1 mM αF5P, purified enzyme [4]: 0 U/mg | Specific activity (U/mg), 1 mM αF6P, purified enzyme [5]: 0 U/mg | αF6P oxidation activity (crude enzyme; αFVH oxidation activity = 100) (relative (αFVH = 100)) [5]: 0 | αF6P/αFV [5]: 0 | αF6P/αFVH [5]: 0 | Specific activity (U/mg), 1 mM αF8P, purified enzyme [6]: 0 U/mg | Specific activity (U/mg), 1 mM αF16P, purified enzyme [7]: 0 U/mg

B4: CFP-T7-H20 (protein)
chain: MTSNRADTRVIVVGGGGTIGSSTALHLVRSGYAPANITVLDTFEIPSAQSAGHDLNKIMGIDLRNKVDLQMSLEARQMWKEDELFQPFFHNTGRMDCEHTPEGIEKLKKLYQKLHDAGAGLEKTHAWLDNEDEILSKMPLLQRDQIQGWKAIWSQDGGWLAAAKAINAIGQFLKERGVKFGFGGAGSFKQPLFDDEGTTCIGVETADGTKYYADKVVLAAGAWSPTLVDLEDQCCSKAWVYAHIQLTPEEAAEYKGVPVVYNGEFGFFFEPDEFGVIKVCDEFPGFSRFKEHQPYGAPSPKRISVPRSHAKHPTDTYPDASEVSIKKAIATFLPRFQDKELFNRALCWCTDTADAALLMCEHPKWKNFILATGDSGHSFKILPNVGKYVVELIEGRLPEEMAYQWRWRPGGDALKSRRAAPPKDLADMPGWKHDPKL
Specific activity (U/mg), 1 mM αFVH, purified enzyme [1]: 4.28 U/mg | Specific activity (U/mg), 1 mM αF6P, purified enzyme [5]: 0.85 U/mg | αF6P oxidation activity (crude enzyme; αFVH oxidation activity = 100) (relative (αFVH = 100)) [5]: 20.5 | αF6P/αFV [5]: 0.0377 and 0.0389 | αF6P/αFVH [5]: 0.205 and 0.198
